Assays:
Assay type in all cases: biochemical, Synechocystis sp. PCC 6803
[1] = substrate: Nc1ncnc2c1ncn2[C@@H]1O[C@H](COP(=O)(O)OP(=O)(O)OP(=O)(O)O)[C@@H](O)[C@H]1O; experiment: continuous fluorometric MgDIX formation assay, Hill fit; details: 10 mM free Mg2+, 8 μM DIX, pH 7.7, 34 °C
[2] = substrate: Nc1ncnc2c1ncn2[C@@H]1O[C@H](COP(=O)(O)OP(=O)(O)OP(=O)(O)O)[C@@H](O)[C@H]1O; experiment: continuous fluorometric MgDIX formation assay, Michaelis-Menten fit; details: 10 mM free Mg2+, 8 μM DIX, pH 7.7, 34 °C, I 0.1, non-cooperative
[3] = substrate: CC1=C(CCC(=O)O)c2cc3nc(cc4[nH]c(cc4C)cc4[nH]c(cc1n2)cc4C)C(C)=C3CCC(=O)O; experiment: as above; details: 5 mM ATP, Mg2+, pH 7.7, 34 °C, I 0.1

B1: magnesium chelatase (ChlI, His6-ChlD, His6-ChlH); nucleotide sites (Synechocystis sp. PCC 6803 substr. Kazusa) (protein)
chain 1: MTATLAAPSKTRRVVFPFTAIVGQDEMKLALLLNVIDPKIGGVMIMGDRGTGKSTTIRALADLLPEIEVVANDPFNSSPSDPEMMSEEVRIRVDSQEPLSIVKKKVTMVDLPLGATEDRVCGTIDIEKALSEGVKAFEPGLLAKANRGILYVDEVNLLDDHLVDVLLDSAAGGWNTVEREGISIRHPARFVLVGSGNPEEGELRPQLLDRFGMHAEIRTVREPELRVKIVEQRTEFDQNPHPFCDQYQTEQEALQAKIVNAQNLLPQVTIDYDYRVKVSEVCAELDVDGLRGDIVTNRAAKALAAFEGRTEVTVDDISRVIVLCLRHRLRKDPLESIDSGSKVEKVFKRVFGVVDEA
chain 2: not shown
notes: recombinant from E. coli; His6 tags on ChlD and ChlH, ChlI untagged; ATPase sites in ChlI, allosteric nucleotide site proposed in ChlD; with Magnesium-chelatase subunit ChlH
[1]; I 0.1, Hill n 2.0 ± 0.2
  K0.5: 0.43 ± 0.02 mM
  kcat: 0.00675 ± 0.000233 s⁻¹

B2: magnesium chelatase (ChlI, His6-ChlD, His6-ChlH); nucleotide sites (Synechocystis sp. PCC 6803 substr. Kazusa; P72772:R289A) (protein)
chain 1: B1 chain 1
chain 2: not shown
notes: as for B1
[2]
  Km: 1790 ± 320 µM
  kcat: 0.0009 ± 8.3e-05 s⁻¹

B3: magnesium chelatase (ChlI, His6-ChlD, His6-ChlH); nucleotide sites (Synechocystis sp. PCC 6803 substr. Kazusa; P72772:E152Q) (protein)
chain 1: B1 chain 1
chain 2: not shown
notes: as for B1
[1]; I 0.1, Hill n 1.8 ± 0.17
  K0.5: 0.72 ± 0.04 mM
  kcat: 0.0018 ± 6.7e-05 s⁻¹

B4: magnesium chelatase (ChlI, His6-ChlD, His6-ChlH); nucleotide sites (Synechocystis sp. PCC 6803 substr. Kazusa; P72772:R208A) (protein)
chain 1: B1 chain 1
chain 2: not shown
notes: as for B1
[1]; I 0.1, Hill n 2.0 ± 0.10
  K0.5: 0.78 ± 0.02 mM
  kcat: 0.00438 ± 8.3e-05 s⁻¹

B5: magnesium chelatase (ChlI, His6-ChlD, His6-ChlH); porphyrin site (Synechocystis sp. PCC 6803 substr. Kazusa) (protein)
chain: MFTNVKSTIRRVDPEALNGRQLLKVVYVVLESQYQSALSAAVRNINRTNSSLAIQLTGYLIEELRDPENYANFKHDVSEANLFIASLIFIEDLADKVVEAVTPYRDNLDAAIVFPSMPQVMRLNKMGSFSMAQLGQSKSAIAQFMKKRKENSSGAGFQDAMLKLLRTLPTVLKYLPVEKAQDARNFMLSFQYWLGGSQENLENFLLMLTDKYVYPDLGLDKLVNYQEPVVYPDMGIWHPLSMQMFENVKDYLEWYNQRPDISEDLKDPLAPCIGLIMQRTHLVTGDDAHYVGMVQELEAMGARVICVFSGGLDFSKPVNEYFWDKSVNGVEPLPIVDAVVSLTGFALVGGPARQDHPRAIESLKKLNRPYMCALPLVFQTTEEWEASDLGLHPIQVALQIAIPELDGAIEPIILSGRDGSTGRAIALQDRLEAIAQRAMKWANLRKKPKLDKKVAITVFSFPPDKGNVGTAAYLDVFGSIYEVMKGLQGNGYDVQDLPGSAKELMEAVIHDAQAQYNSPELNIAHRMSVEQYERLTPYSVRLEENWGKPPGHLNSDGQNLLIYGKEFGNVFIGVQPTFGYEGDPMRLLFSRSASPHHGFAAYYTYLNHIWKADAVLHFGTHGSLEFMPGKQMGMSGECYPDNLIGTIPNLYYYAANNPSEATIAKRRGYASTISYLTPPAENAGLYKGLQELNELIGSYQTLKDSGRGIQIVNTIMDQARICNLDQDVNLPDINAEEMDQGQRDTIVGSVYRKLMEIESRLLPCGLHVIGQPPSAEEAIATLVNIASLDREDEGIWALPTLIAESIGRNMEEIYRNSDKGILADVELLQDITLATRAAVAALVQEQINADGRVSFVSKLNFFKIGKKAPWVKSLCDSGYPNVNEEKLKPLFEYLEFCLEQVCADNEFGGLLQALEGEYVLPGPGGDPIRNPNVLPTGKNIHALDPQSIPTLAAVQSAKVVVDRLLERQRAENGGNYPETIASVLWGTDNIKTYGESLAQIMWMVGAKPVPDALGRVNKIELVPLEELGRPRIDVVVNCSGVFRDLFINQMNLLDQAVKLAAEADEPLEMNFVRKHALEQAEEMGIGVREAATRIFSNASGSYSSNVNLAVENSSWEDESELQEMYLKRKSFAFNSDNPGMMDQNRDMFERALKTADATFQNLDSSEISLTDVSHYFDSDPTKLISTLRDDGKAPAAYIADTTTANAQVRTLSETVRLDARTKLLNPKWYEGMLSHGYEGVRELSKRLVNTMGWSATAGAVDNWVYEDANSTFIKDEEMCKRLMDLNPNSFRRMVSTLLEVNGRGYWETSDENLERLQELYQEVEDRIEGVE
notes: recombinant from E. coli; His6 tags on ChlD and ChlH; copies are assay ratio; with Magnesium-chelatase subunit ChlI; Magnesium-chelatase subunit ChlD
[3]
  Km: 5.74 ± 0.77 µM
  kcat: 0.0188 ± 0.001 s⁻¹

Reference: publication PMC3789969, “The Allosteric Role of the AAA^+ Domain of ChlD Protein from the Magnesium Chelatase of Synechocystis Species PCC 6803” (The Journal of Biological Chemistry, 2013)
